Measurements: US20200407445A1 (ITEOS THERAPEUTICS, published 2020)
One block for each binder: values may come before it.

Columns and labels:
[1] = biological target: T1, human TIGIT expressed on cells (human, UniProt Q495A1 22-244); assay: flow cytometry, competition with CD155-His (15 ug/ml) on Jurkat-hTIGIT
T1 construct: whole, on cells; on Jurkat E6.1 cells transduced with human TIGIT, on Promega TIGIT Effector cells or on human primary T cells; the assay field says which; also called hTIGIT; Jurkat-hTIGIT
T1 sequence (looked up): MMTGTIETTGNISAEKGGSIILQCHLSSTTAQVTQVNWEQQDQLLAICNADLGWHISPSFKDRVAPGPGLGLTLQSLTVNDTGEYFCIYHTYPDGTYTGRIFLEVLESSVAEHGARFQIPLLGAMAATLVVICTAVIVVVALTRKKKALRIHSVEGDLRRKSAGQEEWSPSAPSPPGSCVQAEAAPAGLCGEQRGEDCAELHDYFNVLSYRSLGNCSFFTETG

[2] = biological target: T1, human TIGIT expressed on cells; assay: flow cytometry, primary CD8+ T cells of healthy human PBMC, MFI
Method: Isolated human PBMCs from healthy volunteers were analysed for binding by antagonist anti-TIGIT antibodies. Cells were distributed at 1×10⁵ cells per well. Cells were incubated with anti-CD16 (Clone 3G8, BioLegend 302002), CD32 (Clone FLI8.26, BD Bioscience 557333) and CD64 (BD Bioscience 555525) at room temperature for 10 min, and the indicated anti-human TIGIT antibody clones were directly added at a final concentration of 8; 4; 2; 1; 0.5; 0.25; 0.125; 0.062; 0.031; 0.016; 8×10⁻³ and 4×10⁻³ nM in FACS buffer and incubated for 20 min at 4° C. […] Then, cells were washed and incubated with the following antibodies and LVD mix: anti-CD4-PercP-Cy5.5 (clone A161A1, BioLegend 357414); anti-CD8-BV510 (clone SK1, BD Bioscience 563919) and LVD efluor 660 (eBioscience 65-0864-18).
The EC50 values for binding to CD8+ human primary T cells were calculated using the MFI signal on living TIGIT+CD8+ T cells.

[3] = biological target: T2, recombinant human TIGIT protein (construct not stated) (human, UniProt Q495A1 22-141, limits assumed); assay: Biacore T200, IgG captured by anti-human Fc, antigen in solution, steady state model
T2 construct: also called hTIGIT (Creative Biomart); recombinant TIGIT protein
T2 sequence (looked up): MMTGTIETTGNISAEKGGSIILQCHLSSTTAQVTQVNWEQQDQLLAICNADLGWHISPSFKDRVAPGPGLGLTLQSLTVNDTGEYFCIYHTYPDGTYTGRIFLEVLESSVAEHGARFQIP
Method: Biosensor analysis was conducted at 25° C. in a HBS-EP buffer system (10 mM HEPES pH 7.3, 150 mM NaCl, 3 mM EDTA, 0.05% Tween20) using Biacore T200 technology, CMS sensor chip (run at Novalix, France). The sample hotel was maintained at 8° C. Goat anti-human IgG capture antibody (Fcγ fragment specific, Jackson ImmunoResearch Laboratories) was immobilized (10000 RU) to both flow cells of the sensor chip using standard amine coupling chemistry. This surface type provided a format for reproducibly capturing fresh analysis antibody after each regeneration step. Flow cell 2 was used to analyse captured antibody while flow cell 1 was used as a reference flow cell. […] Two blank (buffer) injections also were run and used to assess and subtract system artefacts. The association (300 s) and dissociation (600 s) phases for all antigen concentrations were performed at a flow rate of 30 uL/min. The surface was regenerated with three sequential injections (15 s, 15 s and 60 s) of 10 mM glycine-HCl, pH 1.5. […]

[4] = biological target: T1, human TIGIT expressed on cells; assay: flow cytometry on Jurkat-hTIGIT
Method: (§1) Antibodies were incubated with the cells for 20 min at 4° C. in FACS buffer. […] Fluorescence intensity was analysed using LSR BD Fortessa and cell binding was recorded as the median fluorescence intensity of PE in cells expressing TIGIT at their surface.
(§2) The half-maximal concentration of binding (EC50) to Jurkat-hTIGIT was calculated using a four-variable curve-fit equation in Prism.

[5] = biological target: T1, human TIGIT expressed on cells; assay: flow cytometry on Jurkat-hTIGIT; remark: listed apart in the source
Method: as §1, §2

[6] = biological target: T1, human TIGIT expressed on cells; assay: flow cytometry, primary CD8+ T cells of cancer patients' PBMC, MFI
Method: Cells were distributed at 1×10^5 cells per well. […] Then, cells were washed and incubated with the following antibodies and life viability dye (LVD) mix: anti-CD4-PercP-Cy5.5 (clone A161A1, BioLegend 357414); anti-CD8-BV510 (clone SK1, BD Bioscience 563919) and LVD efluor 520 (eBioscience 65-0867-14). Cells were washed and fixed and surface staining was quantified using BD LSR Fortessa. Flow cytometry data was analysed using FlowJo V10.1. TIGIT MFI on gated LVD-TIGIT+CD8+ cells was used to calculate EC50 values.

[7] = biological target: T1, human TIGIT expressed on cells; assay: cell-based or functional assay
[8] = biological target: T2, recombinant human TIGIT protein …; assay: Biacore T200, IgG captured by anti-human Fc, antigen in solution, 1:1 kinetic model
Method: Biosensor analysis was conducted at 25° C. in a HBS-EP buffer system (10 mM HEPES pH 7.3, 150 mM NaCl, 3 mM EDTA, 0.05% Tween20) using Biacore T200 technology, CMS sensor chip (run at Novalix, France). The sample hotel was maintained at 8° C. Goat anti-human IgG capture antibody (Fcγ fragment specific, Jackson ImmunoResearch Laboratories) was immobilized (10000 RU) to both flow cells of the sensor chip using standard amine coupling chemistry. This surface type provided a format for reproducibly capturing fresh analysis antibody after each regeneration step. Flow cell 2 was used to analyse captured antibody while flow cell 1 was used as a reference flow cell. […] Two blank (buffer) injections also were run and used to assess and subtract system artefacts. The association (300 s) and dissociation (600 s) phases for all antigen concentrations were performed at a flow rate of 30 uL/min. The surface was regenerated with three sequential injections (15 s, 15 s and 60 s) of 10 mM glycine-HCl, pH 1.5. The obtained sensorgrams were fitted globally to a 1:1 model (assuming the same kinetic values for all applied concentrations).

[9] = biological target: T1, human TIGIT expressed on cells; assay: cell-based or functional assay; remark: listed apart in the source
[10] = biological target: T3, mouse TIGIT expressed on cells (mouse, UniProt P86176 29-249); assay: flow cytometry, competition with mouse CD155-His-Fc (4 ug/ml) on Jurkat-mTIGIT, FIG. 15A
T3 construct: whole, on cells; on Jurkat cells engineered to express mouse TIGIT; also called mTIGIT; Jurkat-mTIGIT
T3 sequence (looked up): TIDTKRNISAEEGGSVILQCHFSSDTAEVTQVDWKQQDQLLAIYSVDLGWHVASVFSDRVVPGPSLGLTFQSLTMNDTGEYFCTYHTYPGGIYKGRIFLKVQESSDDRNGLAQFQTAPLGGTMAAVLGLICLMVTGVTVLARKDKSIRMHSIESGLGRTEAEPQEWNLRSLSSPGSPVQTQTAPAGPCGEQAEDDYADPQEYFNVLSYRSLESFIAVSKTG
Method: Cells were washed once, and stained with PE-anti-His antibody (Biolegend, 362603) during 30 min at 4° C.

[11] = biological target: T3, mouse TIGIT expressed on cells; assay: cell-based or functional assay
Human TIGIT-Fc = biological target: T4, Human TIGIT-Fc (human, UniProt Q495A1 22-141); assay: ForteBio BLI, IgG KD, avid
T4 construct: bought (Creative Biomart); also called TIGIT-Fc antigen; TIGIT-Fc fusion antigen; not shown: Fc part
T4 sequence (looked up): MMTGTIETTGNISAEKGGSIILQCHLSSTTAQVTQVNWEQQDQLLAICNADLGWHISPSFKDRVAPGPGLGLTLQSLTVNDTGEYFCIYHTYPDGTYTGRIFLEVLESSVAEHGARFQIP

[12] = biological target: T3, mouse TIGIT expressed on cells; assay: flow cytometry, 100 nM Ab, Jurkat-mTIGIT vs untransfected
Method: (§3) Antibodies were incubated with the cells for 20 min at 4° C. in FACS buffer. […] Geometric mean fluorecence intensity was analysed using LSR BD Fortessa. Cell binding was recorded as the median florescence intensity of PE on the transfected line compared to the un-transfected line for each antibody (Table 3).

[13] = biological target: T1, human TIGIT expressed on cells; assay: flow cytometry, 100 nM Ab, Jurkat-hTIGIT vs untransfected
Method: as §3

[14] = biological target: T1, human TIGIT expressed on cells; assay: cell-based or functional assay; remark: listed apart in the source
[15] = biological target: T1, human TIGIT expressed on cells; assay: flow cytometry, cell binding Jurkat human TIGIT
[16] = biological target: T1, human TIGIT expressed on cells; assay: flow cytometry, AF647-32959 on Jurkat-hTIGIT; competitor 31282 at 0 nM
Method: (§4) Geometric mean fluorescence intensity was analysed using LSR BD Fortessa. Cell binding was recorded as the median florescence intensity of AF647.

[17] = biological target: T1, human TIGIT expressed on cells; assay: flow cytometry, AF647-32959 on Jurkat-hTIGIT; competitor 31282 at 0.8 nM
Method: as §4

[18] = biological target: T1, human TIGIT expressed on cells; assay: flow cytometry, AF647-32959 on Jurkat-hTIGIT; competitor 31282 at 0.16 nM
Method: as §4

[19] = biological target: T1, human TIGIT expressed on cells; assay: flow cytometry, AF647-32959 on Jurkat-hTIGIT; competitor 31282 at 0.08 nM
Method: as §4

[20] = biological target: T1, human TIGIT expressed on cells; assay: flow cytometry, AF647-32959 on Jurkat-hTIGIT; competitor 31282 at 8 nM
Method: as §4

B2: 4.1D3.Q1E (comparative anti-TIGIT antibody, human IgG1) (antibody, V domains shown)
VH: EVQLQQSGPGLVKPSQTLSLTCAISGDSVSSNSAAWNWIRQSPSRGLEWLGKTYYRFKWYSDYAVSVKGRITINPDTSKNQFSLQLNSVTPEDTAVFYCTRESTTYDLLAGPFDYWGQGTLVTVSS
VL: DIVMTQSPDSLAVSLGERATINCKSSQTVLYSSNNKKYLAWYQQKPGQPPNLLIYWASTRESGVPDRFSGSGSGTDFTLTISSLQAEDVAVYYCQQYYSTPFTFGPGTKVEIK
notes: from WO2017/053748; made in HEK cells as human IgG1
EC50 (nM), IFNg, human primary CD8+ T cells [7]: 1.43 nM
Fold change of EC50 over EC50 of best clone (31282_wu) [7]: 10.8 fold
Induction over isotype control (fold change), IFNg, human primary CD8+ T cells + CD155 aAPC/CHO-K1 [7]: 2.9 fold
Fold change of IC50 over IC50 of best clone (31282_up) [1]: 1.9 fold
IC50 [1]: 0.07 nM
EC50 [2]: 1.88 nM
Fold change of EC50 over EC50 of best clone (31282_wu) [2]: 9.7 fold
Kd [8]: 0.044 nM
koff [8]: 4.72e-05 s⁻¹
EC50 (nM), luciferase, Jurkat-hTIGIT [9]: 10.3 nM
Fold change of EC50 over EC50 of best clone (31282_up) [9]: 3.1 fold
Induction over Isotype control (fold change), luciferase, Jurkat-hTIGIT + CD155 aAPC/CHO-K1 [9]: 5.8 fold
EC50 [4]: 0.27 nM
Fold change of EC50 over EC50 of best clone (31282_wu) [4]: 2.5 fold
EC50 [5]: 0.267 nM
EC50 [6]: 1.15 nM
Fold change of EC50 over EC50 of best clone (31282) [6]: 9.5 fold

B3: anti-TIGIT antibody clone 26493 (IgG) (antibody, V domains shown)
VH: EVQLVESGGGLVQPGRSLRLSCAASGFTFGDYAMHWVRQAPGKGLEWVSGITWNSGSIGYADSVKGRFTISRDNAKNSLYLQMNSLRAEDTALYYCAKPVPKSRGLDVWGQGTMVTVSS
VL: DIQLTQSPSSVSASVGDRVTITCRASQGISSWLAWYQQKPGKAPKLLIYGASSLQSGVPSRFSGSGSGTDFTLTISSLQPEDFATYYCQQAFYLPWTFGGGTKVEIK
notes: parent clone; also called surrogate anti-TIGIT antagonistic antibody
IC50 [10]: 2.3 nM
IFNg production by mouse OT-I CD8+ T cells co-cultured with OVA-pulsed PanO2 cells (express CD155), 133 nM [11]: ~2 fold
Kd (Human TIGIT-Fc): 1.49 nM
FON (Fold Over Negative) [12]: 463 fold
FON (Fold Over Negative) [13]: 80 fold
Induction over Isotype control (fold change), luciferase, Jurkat-hTIGIT + CHO-TCR-CD155, 133 nM [14]: 0.96 fold

Next, values leading:

Fold change of IC50 over IC50 of best clone (31282_up) [1]: 16.7 fold
IC50 [1]: 0.65 nM
EC50 [2]: 1.45 nM
Fold change of EC50 over EC50 of best clone (31282_wu) [2]: 7.5 fold
Kd [3]: 10.1 nM
EC50 [4]: 0.44 nM
Fold change of EC50 over EC50 of best clone (31282_wu) [4]: 4.2 fold
EC50 [5]: 0.445 nM
EC50 [6]: 1 nM
Fold change of EC50 over EC50 of best clone (31282) [6]: 8.3 fold
B1: 313M32 (comparative anti-TIGIT antibody, human IgG1) (antibody, V domains shown)
VH: QVQLQESGPGLVKPSETLSLTCAVSGYSITSDYAWNWIRQPPGKGLEWIGYISYSGSTSYNPSLRSRVTISRDTSKNQFFLKLSSVTAADTAVYYCARRQVGLGFAYWGQGTLVTVSS
VL: DIQMTQSPSSLSASVGDRVTITCKASQDVSTAVAWYQQKPGKAPKLLIYSASYRYTGVPSRFSGSGSGTDFTFTISSLQPEDIATYYCQQHYSTPWTFG
notes: from WO2016/191643; made in HEK cells as human IgG1; the VL as printed ends at ...TFG (FR4 not complete); also called 313M2

FON (Fold Over Negative) [15]: 588 fold
EC50 [16]: 0.22 nM
EC50 [17]: 0.49 nM
EC50 [18]: 0.37 nM
EC50 [19]: 0.33 nM
EC50 [20]: 0.39 nM
B4: anti-TIGIT antibody clone 32959 (human IgG1) (antibody, V domains shown)
VH: QVQLVQSGAEVKKPGSSVKVSCKASGGTFSSYLISWVRQAPGQGLEWMGGIYPIFATANYAQKFQGRVTITADESTSTAYMELSSLRSEDTAVYYCAREAQSYRVPFDIWGQGTMVTVSS
VL: EIVMTQSPATLSVSPGERATLSCRASQSVSSNLAWYQQKPGQAPRLLIYGASTRATGIPARFSGSGSGTEFTLTISSLQSEDFAVYYCQQYAIWPPFTFGGGTKVEIK
modifications: The antibody was directly coupled to the dye AF647 in Example 24; the attachment sites are not stated.
notes: human IgG1 made in HEK cells
